From article PMC11569188 (2024) come the findings set out here.

This test addresses Grb2 SH2 domain (BAP-tagged) (UniProt P62993 60-152, biotin on the BAP tag (in vivo biotinylation)). Put plainly: FP.

Sequence of Grb2 SH2 domain (BAP-tagged) (P62993 60-152): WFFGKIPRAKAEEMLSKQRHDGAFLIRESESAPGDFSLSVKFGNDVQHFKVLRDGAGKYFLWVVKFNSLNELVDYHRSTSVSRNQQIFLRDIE

B1: Affimer Grb2 A4 (designed binder)
chain: MASNSLEIEELARFAVDEHNKKENALLEFVRVVKAKEQHVLWENAGPTMYYLTLEAKDGGKKKLYEAKVWVKHTRYEYFVYNFKELQEFKPVGDAAAAHHHHHHHH
For the molecule B1, it took 770 nM to reach half-maximal inhibition (IC50).
